Experiment [1] has as its target GST-Plk1 (full-length), prepared in SF9 cells (human).
Experiment [2] concerns the target degenerate peptide library MAXXXXSpTXXXXAKKK (SEQ ID NO: 48). In words: GST-PBD on glutathione beads, oriented peptide library screening.
The target of experiment [3] is degenerate peptide library MAXXXXpTPXXXXAKKK (SEQ ID NO: 46). Described as above.
The target of experiment [4] is T1, BRCTtide-7pS, GAAYDI-pS-… (Artificial Sequence).
T1 sequence (peptide, phosphoserine (pS) at position 7): GAAYDISQVFPFAKKK
Nature of the experiment: isothermal titration calorimetry, peptide injected into GST-BRCA1 BRCT domains. (In general: Isothermal titration calorimetry measures the heat released or taken up as one component is titrated into another.)

Experiment [5] addresses degenerate peptide library GAXXXB(pS/pT)QJXXXAKKK (SEQ ID NO: 62). Nature of the experiment: GST-(BRCT)2 on glutathione beads, soluble degenerate library, Edman sequencing of bound peptides.
In experiment [6] the target is degenerate peptide library GAXXXXpSXXFXXAYKKK (SEQ ID NO: 59). The experiment is described as above.
The target in experiment [7] is degenerate peptide library MAXXXXpTXXXXAKKK (SEQ ID NO: 47). Described as above.
The target in experiment [8] is degenerate peptide library Met-Ala-X-X-X-X-pSer-X-X-X-X-X-Ala-Lys-Lys-Lys (SEQ ID NO: 58). The experiment is described as above.
The target in experiment [9] is T1, BRCTtide-7pS, GAAYDI-pS-… (Artificial Sequence). In words: isothermal titration calorimetry, peptide injected into GST-PTIP BRCT domains.
In experiment [10] the target is T2, BRCTtide-7pT, GAAYDI-pT-… (Artificial Sequence).
T2 sequence (peptide, phosphothreonine (pT) at position 7): GAAYDITQVFPFAKKK
The experiment is described as above.

Non-standard residues stand in square brackets, D forms with d. No end group written: not given here. pT = C[C@@H](OP(=O)(O)O)[C@H](N)C(=O)O

MAGPMQS[pT]PLNGAKK [PoloBoxtide-optimal, MAGPMQ-S-pT-P-LNGAKK]: the Plk1 kinase activity towards casein (32P incorporation, SDS-PAGE/autoradiography) in experiment [1] is 2.6 fold.

B1: GST-hPlk2 PBD (human Plk2 residues 355-685) (protein)
chain: HLSSPAKNFFKKAAAALFGGKKDKARYIDTHNRVSKEDEDIYKLRHDLKKTSITQQPSKHRTDEELQPPTTTVARSGTPAVENKQQIGDAIRMIVRGTLGSCSSSSECLEDSTMGSVADTVARVLRGCLENMPEADCIPKEQLSTSFQWVTKWVDYSNKYGFGYQLSDHTVGVLFNNGAHMSLLPDKKTVHYYAELGQCSVFPATDAPEQFISQVTVLKYFSHYMEENLMDGGDLPSVTDIRRPRLYLLQWLKSDKALMMLFNDGTFQVNFYHDHTKIIICSQNEEYLLTYINEDRISTTFRLTTLLMSGCSSELKNRMEYALNMLLQRCN
B1: the selectivity ratio, Pro at pThr+1 in experiment [2] was 1.7. In addition, in experiment [3], the selectivity ratio, Ser at pThr-1 turned out to be 7.5.

B2: GST-Cdc5p PBD (Saccharomyces cerevisiae Cdc5p residues 357-705) (protein)
chain: EDIPEEQSLVNFKDCMEKSLLLESMSSDKIQRQKRDYISSIKSSIDKLEEYHQNRPFLPHSLSPGGTKQKYKEVVDIEAQRRLNDLAREARIRRAQQAVLRKELIATSTNVIKSEISLRILASECHLTLNGIVEAEAQYKMGGLPKSRLPKIKHPMIVTKWVDYSNKHGFSYQLSTEDIGVLFNNGTTVLRLADAEEFWYISYDDREGWVASHYLLSEKPRELSRHLEVVDFFAKYMKANLSRVSTFGREEYHKDDVFLRRYTRYKPFVMFELSDGTFQFNFKDHHKMAISDGGKLVTYISPSHESTTYPLVEVLKYGEIPGYPESNFREKLTLIKEGLKQKSTIVTVD
Regarding B2, in experiment [2], the selectivity ratio, Pro at pThr+1 amounted to 1.4. In addition, in experiment [3], the selectivity ratio, Ser at pThr-1 amounted to 5.3.

B3: GST-BRCA1 tandem BRCT domains (residues 1634-1863) (protein)
chain: REKPELTASTERVNKRMSMVVSGLTPEEFMLVYKFARKHHITLTNLITEETTHVVMKTDAEFVCERTLKYFLGIAGGKWVVSYFWVTQSIKERKMLNEHDFEVRGDVVNGRNHQGPKRARESQDRKIFRGLEICCYGPFTNMPTDQLEWMVQLCGASVVKELSSFTLGTGVHPIVVVQPDAWTEDNGFHAIGQMCEAPVVTREWVLDSVALYQCQELDTYLIPQIPHSHY
The term Kd denotes a measure of binding affinity in units of concentration. Read a low Kd as tighter binding. As to B3, the Kd in [4] is 400 nM. In [5], the selectivity ratio, Phe at (pSer/pThr)+3 is 7.5. For the same molecule, in experiment [6], the selectivity ratio, Phe at pSer+1 is 2.1. In addition, the selectivity ratio, Phe at pThr+3 in experiment [7] worked out at 1.9. Further, in [8], the selectivity ratio, Phe at pSer+3 is 2.4.

B4: GST-hPlk3 PBD (human Plk3 residues 335-646) (protein)
chain: TPPNPARSLFAKVTKSLFGRKKKSKNHAQERDEVSGLVSGLMRTSVGHQDARPEAPAASGPAPVSLVETAPEDSSPRGTLASSGDGFEEGLTVATVVESALCALRNCIAFMPPAEQNPAPLAQPEPLVWVSKWVDYSNKFGFGYQLSSRRVAVLFNDGTHMALSANRKTVHYNPTSTKHFSFSVGAVPRALQPQLGILRYFASYMEQHLMKGGDLPSVEEVEVPAPPLLLQWVKTDQALLMLFSDGTVQVNFYGDHTKLILSGWEPLLVTFVARNRSACTYLASHLRQLGCSPDLRQRLRYALRLLRDRSPA
In the case of B4, in [2], the selectivity ratio, Pro at pThr+1 was found to be 1.6. The selectivity ratio, Ser at pThr-1 in [3] came to 3.

B5: GST-PTIP tandem BRCT domains (residues 550-757) (protein)
chain: TPELTPFVLFTGFEPVQVQQYIKKLYILGGEVAESAQKCTHLIASKVTRTVKFLTAISVVKHIVTPEWLEECFRCQKFIDEQNYILRDAEAEVLFSFSLEESLKRAHVSPLFKAKYFYITPGICPSLSTMKAIVECAGGKVLSKQPSFRKLMEHKQNSSLSEIILISCENDLHLCREYFARGIDVHNAEFVLTGVLTQTLDYESYKFN
In the case of B5, the Kd in [9] is 280 nM; in [10] it was 14300 nM. In experiment [5], the selectivity ratio, Phe at (pSer/pThr)+3 was 7. Further, the selectivity ratio, Ile at pSer+5 in [6] was found to be 1.9. Besides, the selectivity ratio, Ile at pThr-1 in [7] was determined as 2.1. In addition, in experiment [8], the selectivity ratio, Phe at pSer+3 was 2.3.
